Measured values from publication PMC3074572 (2011).

Biological target: TGFβ1 (Homo sapiens, UniProt P01137)
Sequence (P01137 279-390): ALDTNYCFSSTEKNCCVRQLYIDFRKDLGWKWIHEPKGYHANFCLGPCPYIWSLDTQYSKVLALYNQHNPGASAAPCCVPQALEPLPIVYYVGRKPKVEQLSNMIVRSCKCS

Kd: 10.4 nM
Binder: KRIWFIPRSSWY [KRIWFIPRSSWY peptide]
